Positions count from the first letter of the chain named.
T1: Biotinylated murine VEGF-164 (Acro Biosystem) (mouse, UniProt Q00731-2 27-190, biotinylated (site not stated))
T1 construct: Bought protein; also called Mouse VEGF164; mouse VEGFA
T1 sequence (looked up): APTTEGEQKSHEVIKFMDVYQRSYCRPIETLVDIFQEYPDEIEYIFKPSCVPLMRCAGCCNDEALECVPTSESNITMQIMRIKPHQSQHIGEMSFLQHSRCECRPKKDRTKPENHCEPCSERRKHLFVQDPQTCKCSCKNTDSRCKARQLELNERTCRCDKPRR

T2: Human VEGF-121 (Acro Biosystems) (human, UniProt P15692 207-395)
T2 construct: Bought protein; also called human VEGFA
T2 sequence: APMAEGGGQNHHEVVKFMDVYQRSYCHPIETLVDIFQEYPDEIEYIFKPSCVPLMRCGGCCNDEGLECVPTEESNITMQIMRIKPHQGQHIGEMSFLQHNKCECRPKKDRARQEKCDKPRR

B1: 16A2.1 (VHH)
VHH: EVQLVESGGGLVQPGGSLRLSCAISGFALAETDIDWVRQAPGKGLEWVARIFSSGGNTDYADSVKGRFTISADTSKNTVYLQMNSLRAEDTAVYYCGRSDSIAYNVILPNSTYTARDYRGQGTLVTVSS
notes: E. coli, ATG codon 5' (possible initiator Met), 3' hexahistidine tag; also called anti-VEGF DotBody 16A2.1; clone 16A2.1
B2: 20A2.1 (VHH)
VHH: B1 VHH with A28P, E31D, G55Y, N57S, V106I, N110A, T114S, A115S
notes: Autonomous humanised VH domain (DotBody), from the 16A2.1-based library with heat challenge; E. coli, ATG codon 5' (possible initiator Met), 3' hexahistidine tag; also called DotBody 20A2.1
B3: 21A8.1 (VHH)
VHH: EVQLVESGGGLVQPGGSLRLSCAISGFSVDATDIDWVRQAPGKGLEWVARIFSPSGFTDYADSVKGRFTISADTSKNTVYLQMNSLRAEDTAVYYCDRPEFYAYNIFHDPRTVPAGNYRGQGTLVTVSS
notes: Autonomous humanised VH domain (DotBody), from the 16C2.1-based library with heat challenge; E. coli, ATG codon 5' (possible initiator Met), 3' hexahistidine tag; also called DotBody 21A8.1
B4: 21D9.1 (VHH)
VHH: EVQLVESGGGLVQPGGSLRLSCAISGFSLGATDIDWVRQAPGKGLEWVARIFSPSDFTDYADSVKGRFTISADTSKNTVYLQMNSLRAEDTAVYYCSRPDTYAYNIFPHTASHGAFNYRGQGTLVTVSS
notes: Autonomous humanised VH domain (DotBody), from the 16C2.1-based library with heat challenge; E. coli, ATG codon 5' (possible initiator Met), 3' hexahistidine tag; also called DotBody 21D9.1
B5: 13A6 (VHH)
VHH: EVQLVESGGGLVQPGGSLRLSCAISGFSLAATDIDWVRQAPGKGLEWVARIFPSAGSTDYADSVKGRFTISADTSKNTVYLQMNSLRAEDTAVYYCGRSDSYSYNVFLHNPTYTALDYRGQGTLVTVSS
notes: Autonomous humanised VH domain (DotBody); also called anti-VEGF DotBody 13A6; clone 13A6
B6: 16A6.1 (VHH)
VHH: B5 VHH with S54F, A55S, A61T, N110D, T112A
notes: E. coli, ATG codon 5' (possible initiator Met), 3' hexahistidine tag; also called clone 16A6.1
B7: 21A1.1 (VHH)
VHH: EVQLVESGGGLVQPGGSLRLSCAISGFALATTDIDWVRQAPGKGLEWVARIFNPSDFTDYADSVKGRFTISADTSKNTVYLQMNSLRAEDTAVYYCGRPAVYGYNIFLDSPTYDASQYRGQGTLVTVSS
notes: Autonomous humanised VH domain (DotBody), from the 16C2.1-based library with heat challenge; E. coli, ATG codon 5' (possible initiator Met), 3' hexahistidine tag; also called DotBody 21A1.1
B8: 21E6.1 (VHH)
VHH: EVQLVESGGGLVQPGGSLRLSCAISGFTLAATDIDWVRQAPGKGLEWVARIFTPTGFSDYADSVKGRFTISADTSKNTVYLQMNSLRAEDTAVYYCGIPELYAYNIFMDIPAYNDVYYRGQGTLVTVSS
notes: Autonomous humanised VH domain (DotBody), from the 16C2.1-based library with heat challenge; E. coli, ATG codon 5' (possible initiator Met), 3' hexahistidine tag; also called DotBody 21E6.1
B9: 23D5.1 (VHH)
VHH: EVQLVESGGGLVQPGGSLRLSCAISGFDLATTDIDWVRQAPGKGLEWVARIFRPSDFTDYADSVKGRFTISADTSKNTVYLQMNSLRAEDTAVYYCVRPDSYAYNILFVTRTFNALHYRGQGTLVTVSS
notes: Autonomous humanised VH domain (DotBody), from the 16C2.1-based library without heat challenge; E. coli, ATG codon 5' (possible initiator Met), 3' hexahistidine tag; also called DotBody 23D5.1
B10: 20A3.1 (VHH)
VHH: EVQLVESGGGLVQPGGSLRLSCAISGFSLADTDIDWVRQAPGKGLEWVARIFSSSGSTYYADSVKGRFTISADTSKNTVYLQMNSLRAEDTAVYYCDRADSVGYNVIFPGSTYSRSGYRGQGTLVTVSS
notes: Autonomous humanised VH domain (DotBody), from the 16A2.1-based library with heat challenge; E. coli, ATG codon 5' (possible initiator Met), 3' hexahistidine tag; also called DotBody 20A3.1
B11: 16A2.1x2 (VHH)
chain: SEVQLVESGGGLVQPGGSLRLSCAISGFALAETDIDWVRQAPGKGLEWVARIFSSGGNTDYADSVKGRFTISADTSKNTVYLQMNSLRAEDTAVYYCGRSDSIAYNVILPNSTYTARDYRGQGTLVTVSSGGGGSGGGGSGGGGSGGGGSGGGGSGGGGSGGGGSEVQLVESGGGLVQPGGSLRLSCAISGFALAETDIDWVRQAPGKGLEWVARIFSSGGNTDYADSVKGRFTISADTSKNTVYLQMNSLRAEDTAVYYCGRSDSIAYNVILPNSTYTARDYRGQGTLVTVSSHHHHHH
notes: Tandem of two 16A2.1 VH domains in one chain; 'produced in the same way' as the single clones (E. coli, ATG codon 5', 3' hexahistidine tag); also called bivalent molecule 16A2.1x2; bivalent 16A2.1x2 molecule

What follows are binders tested against T3, Biotinylated human VEGF-165 (Acro Biosystem) (human, UniProt P15692 207-395, biotinylated (site not stated)) (assay: not stated at this place (BLI in Example 10)).
T3 construct: Bought protein; also called human VEGFA
Experimental: (§1) Binding characterization was performed using BLI (Satorius) at RT with a 1000 rpm flow-rate. Biotinylated human VEGF-165 (Acro Biosystem) was immobilized onto Streptavidin-coated tips at a concentration of 3 μg/mL for 60 sec in BLI buffer (0.1% BSA and 0.01% Tween-20 in PBS). After a 30 sec baseline, anti-VEGFA DotBodies were associated at 8 different concentrations, including a blank reference, in BLI buffer for 60 sec, followed by a 400 sec dissociation in BLI buffer. The background buffer signal was subtracted using the 0 nM concentration reference, and the kinetics of binding were calculated using a global fit following a 1:1 binding model, using BLI Analysis Software. The bivalent molecule 16A2.1x2 was also characterized as described here, but with a 600 sec dissociation. To characterize the binding of all the clones against murine VEGFA, the same procedure was employed, but the immobilized target was replaced with biotinylated murine VEGF-164 (Acro Biosystem).

Binder	Kd
B1	< 5 nM

Each binder was assayed against T3, Biotinylated human VEGF-165 (Acro …) (assay: BLI, biotinylated antigen on streptavidin tips, 1:1 global fit).
Experimental: as §1

Binder	Kd	koff	kon
B2	5.54 nM	0.00055 s⁻¹	97700 M⁻¹ s⁻¹
B3	20 nM	0.00118 s⁻¹	58000 M⁻¹ s⁻¹
B4	20.5 nM	0.00099 s⁻¹	48200 M⁻¹ s⁻¹
B5	38.9 nM	0.00475 s⁻¹	122000 M⁻¹ s⁻¹
B1	2.5 nM	0.000986 s⁻¹	394000 M⁻¹ s⁻¹
B6	14.7 nM	0.00136 s⁻¹	92400 M⁻¹ s⁻¹
B7	11.3 nM	0.00103 s⁻¹	91500 M⁻¹ s⁻¹
B8	6.3 nM	0.000442 s⁻¹	69600 M⁻¹ s⁻¹
B9	2.8 nM	0.000802 s⁻¹	286000 M⁻¹ s⁻¹
B10	2.78 nM	0.000725 s⁻¹	260000 M⁻¹ s⁻¹

Each binder was assayed against T1, Biotinylated murine VEGF-164 (Acro …) in the same assay as above.
Experimental: as §1

Binder	Kd	koff	kon
B2	10.2 nM	0.00135 s⁻¹	132000 M⁻¹ s⁻¹
B3	46.1 nM	0.00292 s⁻¹	63400 M⁻¹ s⁻¹
B4	41.7 nM	0.00243 s⁻¹	58000 M⁻¹ s⁻¹
B5	248 nM	0.0104 s⁻¹	41900 M⁻¹ s⁻¹
B1	16.6 nM	0.00193 s⁻¹	116000 M⁻¹ s⁻¹
B6	18.4 nM	0.00225 s⁻¹	122000 M⁻¹ s⁻¹
B7	13.8 nM	0.00231 s⁻¹	167000 M⁻¹ s⁻¹
B8	14.2 nM	0.00117 s⁻¹	82800 M⁻¹ s⁻¹
B9	8.34 nM	0.00169 s⁻¹	205000 M⁻¹ s⁻¹
B10	8.7 nM	0.000889 s⁻¹	102000 M⁻¹ s⁻¹

These binders were tested against T2, Human VEGF-121 (Acro Biosystems) (assay: competitive ELISA, inhibition of VEGF-121 (0.5 nM) binding to coated VEGFR1 (FIG. 4)).
Experimental: (§2) To perform the competitive ELISA, the VEGFR1 was immobilized at a concentration of 2 μg/mL onto a Maxisorp 96-well plate (Thermo Scientific) overnight at 4° C., washed three times with PBS and blocked for 1 h at RT with ELISA Block Buffer (EBB: 0.2% BSA in PBST). […] The samples were incubated for 2 h at RT, and 50 μL transferred onto the VEGFR1-coated plate. After 2 h incubation, the plate was washed 3 times with PBST. 50 μL of streptavidin-HRP conjugate (Thermo Scientific) was added at a 1:5,000 dilution in EBB, and incubated for 1 h at RT. The plate was washed 5 times with PBST, and developed with 50 μL 3,3′,5,5′-Tetramethylbenzidine (TMB) substrate (GeneTex). After 5-15 min, the reactions were stopped by adding 50 μL of 2M H₂SO₄, and signal was measured at an absorbance of 450 nm.

Binder	IC50
B5	5900 nM
B1	12.2 nM
B6	41.4 nM

What follows are binders tested against T2, Human VEGF-121 (Acro Biosystems) (assay: competitive ELISA, inhibition of VEGF-121 (0.5 nM) binding to coated VEGFR1 (FIG. 5)).
Experimental: as §2

Binder	IC50
B2	1.6 nM
B3	1.8 nM
B4	1 nM
B1	3 nM
B7	0.9 nM
B8	7.5 nM
B9	1.4 nM
B10	0.9 nM

These binders were tested against T3, Biotinylated human VEGF-165 (Acro …) (assay: BLI, biotinylated antigen on streptavidin tips, 600 sec dissociation, 1:1 global fit).
Experimental: as §1

Binder	Kd	koff	kon
B11	0.301 nM	0.000128 s⁻¹	426000 M⁻¹ s⁻¹

Source: patent US20240132580A1 (DOTBIO PTE, published 2024)
